Source: patent US20150259408A1 (PROTHENA BIOSCIENCES, published 2015)

T1: human LAMA4 LG1-3 fragment displayed on 293 cells (pDisplay) (human, UniProt Q16363 830-1430, limits assumed)
T1 sequence: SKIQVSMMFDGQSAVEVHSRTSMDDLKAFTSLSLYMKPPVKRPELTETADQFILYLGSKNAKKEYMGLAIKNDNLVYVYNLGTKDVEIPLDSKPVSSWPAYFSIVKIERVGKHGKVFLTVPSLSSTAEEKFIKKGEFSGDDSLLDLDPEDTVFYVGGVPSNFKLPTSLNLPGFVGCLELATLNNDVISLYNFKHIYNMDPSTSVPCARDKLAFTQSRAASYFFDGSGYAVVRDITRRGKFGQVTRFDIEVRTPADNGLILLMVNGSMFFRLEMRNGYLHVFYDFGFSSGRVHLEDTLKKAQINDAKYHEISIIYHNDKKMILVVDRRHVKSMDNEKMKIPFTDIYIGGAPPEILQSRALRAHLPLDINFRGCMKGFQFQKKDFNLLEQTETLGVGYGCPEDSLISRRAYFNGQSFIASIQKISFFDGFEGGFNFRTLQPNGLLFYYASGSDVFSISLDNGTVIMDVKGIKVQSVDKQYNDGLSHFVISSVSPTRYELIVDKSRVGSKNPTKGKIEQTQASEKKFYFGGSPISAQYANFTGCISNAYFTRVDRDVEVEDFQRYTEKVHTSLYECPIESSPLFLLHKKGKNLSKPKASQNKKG

T2: human LAMA4 G domain LG1-5 displayed on 293 cells (pDisplay) (human, UniProt Q16363 830-1821, limits assumed)
T2 construct: The pDisplay vector parts (leader, tags, PDGFR transmembrane anchor) are not described; also called LAMA4-displaying 293 cells; Human LAMA4 G-domains 1-5
T2 sequence: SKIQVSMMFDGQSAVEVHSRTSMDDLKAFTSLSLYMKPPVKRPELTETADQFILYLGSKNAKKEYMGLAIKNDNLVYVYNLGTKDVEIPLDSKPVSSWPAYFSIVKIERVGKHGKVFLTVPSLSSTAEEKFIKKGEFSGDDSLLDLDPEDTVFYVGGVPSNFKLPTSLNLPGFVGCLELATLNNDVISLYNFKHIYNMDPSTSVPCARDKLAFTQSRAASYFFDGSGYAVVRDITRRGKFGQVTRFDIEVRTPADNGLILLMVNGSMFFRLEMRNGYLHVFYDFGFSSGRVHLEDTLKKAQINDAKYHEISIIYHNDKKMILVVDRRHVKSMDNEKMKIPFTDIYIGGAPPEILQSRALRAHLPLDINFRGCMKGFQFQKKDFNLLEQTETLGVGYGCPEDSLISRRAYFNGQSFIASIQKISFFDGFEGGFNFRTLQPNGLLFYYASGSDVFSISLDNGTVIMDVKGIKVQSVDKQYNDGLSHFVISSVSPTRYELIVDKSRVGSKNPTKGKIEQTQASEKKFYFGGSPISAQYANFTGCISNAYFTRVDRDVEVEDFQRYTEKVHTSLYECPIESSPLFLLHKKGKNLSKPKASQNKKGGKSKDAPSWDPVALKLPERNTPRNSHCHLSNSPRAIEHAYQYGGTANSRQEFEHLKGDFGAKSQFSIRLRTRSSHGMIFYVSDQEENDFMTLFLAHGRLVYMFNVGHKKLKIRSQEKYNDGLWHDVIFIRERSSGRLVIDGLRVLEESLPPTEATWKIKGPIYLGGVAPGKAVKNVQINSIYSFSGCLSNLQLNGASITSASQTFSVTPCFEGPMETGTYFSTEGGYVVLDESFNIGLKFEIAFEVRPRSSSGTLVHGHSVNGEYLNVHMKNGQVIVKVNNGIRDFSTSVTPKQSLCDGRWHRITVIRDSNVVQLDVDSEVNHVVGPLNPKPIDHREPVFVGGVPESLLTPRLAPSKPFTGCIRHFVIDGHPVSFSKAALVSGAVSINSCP

T3: LAMA4 / purified His-LAMA4 (species not stated)
T3 chain: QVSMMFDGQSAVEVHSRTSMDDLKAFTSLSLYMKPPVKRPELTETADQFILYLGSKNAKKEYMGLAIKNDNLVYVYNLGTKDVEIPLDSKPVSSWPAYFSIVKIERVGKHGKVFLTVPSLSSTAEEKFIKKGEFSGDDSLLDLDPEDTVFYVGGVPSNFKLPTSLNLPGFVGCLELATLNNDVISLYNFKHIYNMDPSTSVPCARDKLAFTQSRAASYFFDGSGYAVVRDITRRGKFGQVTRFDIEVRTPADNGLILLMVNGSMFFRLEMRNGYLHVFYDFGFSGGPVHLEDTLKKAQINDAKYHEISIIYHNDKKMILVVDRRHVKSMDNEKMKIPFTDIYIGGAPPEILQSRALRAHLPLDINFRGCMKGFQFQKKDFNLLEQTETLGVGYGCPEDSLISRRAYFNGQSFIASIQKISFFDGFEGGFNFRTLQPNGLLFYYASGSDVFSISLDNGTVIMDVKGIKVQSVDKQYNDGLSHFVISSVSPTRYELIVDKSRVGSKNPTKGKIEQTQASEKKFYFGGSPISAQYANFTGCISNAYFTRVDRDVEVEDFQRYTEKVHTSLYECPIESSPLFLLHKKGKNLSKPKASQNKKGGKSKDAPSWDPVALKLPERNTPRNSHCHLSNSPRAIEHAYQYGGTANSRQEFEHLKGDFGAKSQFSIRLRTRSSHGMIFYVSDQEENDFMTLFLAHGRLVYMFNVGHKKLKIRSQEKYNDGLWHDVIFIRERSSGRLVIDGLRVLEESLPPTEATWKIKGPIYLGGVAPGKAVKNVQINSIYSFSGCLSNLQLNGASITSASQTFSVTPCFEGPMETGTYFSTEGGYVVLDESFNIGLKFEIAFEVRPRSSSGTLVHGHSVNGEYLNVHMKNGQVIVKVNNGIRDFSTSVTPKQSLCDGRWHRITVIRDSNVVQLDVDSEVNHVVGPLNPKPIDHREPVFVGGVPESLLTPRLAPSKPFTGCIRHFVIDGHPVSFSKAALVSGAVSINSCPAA

T4: human LAMA4 LG4-5 fragment displayed on 293 cells (pDisplay) (human, UniProt Q16363 1453-1821, limits assumed)
T4 sequence: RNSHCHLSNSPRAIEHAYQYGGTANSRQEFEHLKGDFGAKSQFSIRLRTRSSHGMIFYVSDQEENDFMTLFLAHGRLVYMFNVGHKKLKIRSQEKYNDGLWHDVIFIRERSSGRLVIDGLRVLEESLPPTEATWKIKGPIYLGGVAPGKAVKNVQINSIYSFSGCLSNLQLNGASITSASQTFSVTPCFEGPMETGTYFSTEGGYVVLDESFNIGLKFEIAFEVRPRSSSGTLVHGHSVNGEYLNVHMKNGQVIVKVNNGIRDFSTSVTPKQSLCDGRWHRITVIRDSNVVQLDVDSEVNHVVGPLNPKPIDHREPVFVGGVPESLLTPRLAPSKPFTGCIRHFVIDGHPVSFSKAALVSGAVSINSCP


Experiments:
[1] = target: T1, human LAMA4 LG1-3 fragment displayed on …; assay: flow cytometry on 293 cells displaying LAMA4 fragments
Protocol: (§1) The specific binding of the chimeric 15F7, […] H1L2, H2L1, and H2L2 antibodies to the LG4-5 modules of the G domain of LAMA4 was tested by assessing the antibodies' ability to stain LAMA4-fragment-displaying 293 cells by flow cytometry, as shown in FIG. 9. Each of the antibodies was able to specifically bind 293 cells displaying LG1-5 and LG4-5, but not LG1-3.
(§2) Human LAMA4 G-domains 1-5 and variants were cloned into pDisplay expression construct (Life Technologies) and transiently transfected into 293 cells using standard procedures. Anti-LAMA4 antibodies were incubated with cells for 30 min at 4° C. and followed by anti-mouse-650 for 30 minutes at 4° C. Cells were analyzed for anti-laminin binding by flow cytometry using standard procedures.

[2] = target: T2, human LAMA4 G domain LG1-5 displayed on …; assay: as above
Protocol: as §1, §2

[3] = target: T3, LAMA4 / purified His-LAMA4 (species not …); assay: SPR (Biacore), full kinetic analysis; species of LAMA4 not stated
[4] = target: T4, human LAMA4 LG4-5 fragment displayed on …; assay: flow cytometry, serial dilution on 293 cells displaying LG4-5
Protocol: Chimeric 15F7, H1L1, H1L2, H2L1, H2L2, and buffer alone were tested for their ability to bind to LAMA4-fragment-displaying cells. To test LAMA4 binding capacity, serially diluted antibodies were pre-incubated with human 293 cells displaying LG4-5, followed by anti-human-650 secondary antibody incubation as described in the Materials and Methods. Fluorescent signal was assessed via flow cytometric analyses and plotted as mean fluorescence intensity (MFI) as shown in FIG. 8.
as §2

Binder | binding result [1] | binding result [2] | Kd [3] [nM] | koff [3] [s⁻¹] | kon [3] [M⁻¹ s⁻¹] | binding result [4]
humanized 15F7 variant H1L1 (Hu15F7VHv1/Hu15F7VLv1) (antibody, V domains shown, They are human, since it was captured by a goat anti-human Fc sensor; also called VHv1/VLv1) VH: EVQLQQSGAEVKKPGSSVKLSCKASGYTFTSYGLSWVKQRAGQGLEWIGEIFPRSGNTYYNEKFKGKATLTADKSSSTAYMELRSLRSEDTAVYFCARGVRSPGAMDYWGQGTLVTVSS VL: DIQMTQSSSSLSASVGDRVTITCKASEDIYNRLAWYQQKPGNAPRLLISGATSLETGVPSRFSGSGSGKDYTLTISSLQTEDFATYYCQQYWSIPYTFGGGTKLEIKR | no binding | binds | 0.12 | 0.000183 | 1.5e+06 | binds
chimeric 15F7 (antibody, V domains shown) VH: QVQLQQSGTELARPGAAVKLSCKASGYTFTSYGLSWVKQRAGQGLEWIGEIFPRSGNTYYNEKFKGKATLTADKSSSTAYMELRSLTSEDSAVYFCARGVRSPGAMDYWGQGTSVTVSS VL: DIQMTQSSSSFSVSLGDRVTITCKASEDIYNRLAWYQQKPGNAPRLLISGATSLETGVPSRFSGSGSGKDYTLSITSLQTEDVATYYCQQYWSIPYTFGGGTNLEIKR | no binding | – | 0.1 | 0.000151 | 1.5e+06 | –

Further lines, results first:

binding result [1] | binding result [2] | Kd [3] [nM] | koff [3] [s⁻¹] | kon [3] [M⁻¹ s⁻¹] | binding result [4] | Binder
no binding | binds | – | – | – | binds | humanized 15F7 variant H1L2 (Hu15F7VHv1/Hu15F7VLv2) (antibody, V domains shown, also called VHv1/VLv2) VH: EVQLQQSGAEVKKPGSSVKLSCKASGYTFTSYGLSWVKQRAGQGLEWIGEIFPRSGNTYYNEKFKGKATLTADKSSSTAYMELRSLRSEDTAVYFCARGVRSPGAMDYWGQGTLVTVSS VL: DIQMTQSPSSLSASVGDRVTITCKASEDIYNRLAWYQQKPGNAPKLLISGATSLETGVPSRFSGSGSGKDFTLTISSLQPEDFATYYCQQYWSIPYTFGGGTKVEIKR
no binding | binds | 0.13 | 0.000205 | 1.56e+06 | binds | humanized 15F7 variant H2L1 (Hu15F7VHv2/Hu15F7VLv1) (antibody, V domains shown, also called VHv2/VLv1) VH: EVQLQQSGAEVKKPGSSVKLSCKASGYTFTSYGLSWVKQRPGQGLEWIGEIFPRSGNTYYNEKFKGKATITADKSSSTAYMELRSLRSEDTAVYFCARGVRSPGAMDYWGQGTLVTVSS VL: DIQMTQSSSSLSASVGDRVTITCKASEDIYNRLAWYQQKPGNAPRLLISGATSLETGVPSRFSGSGSGKDYTLTISSLQTEDFATYYCQQYWSIPYTFGGGTKLEIKR
no binding | binds | – | – | – | binds | humanized 15F7 variant H2L2 (Hu15F7VHv2/Hu15F7VLv2) (antibody, V domains shown, also called VHv2/VLv2) VH: EVQLQQSGAEVKKPGSSVKLSCKASGYTFTSYGLSWVKQRPGQGLEWIGEIFPRSGNTYYNEKFKGKATITADKSSSTAYMELRSLRSEDTAVYFCARGVRSPGAMDYWGQGTLVTVSS VL: DIQMTQSPSSLSASVGDRVTITCKASEDIYNRLAWYQQKPGNAPKLLISGATSLETGVPSRFSGSGSGKDFTLTISSLQPEDFATYYCQQYWSIPYTFGGGTKVEIKR
